Test results: the supplement of paper PMC7877785
± gives the uncertainty stated by the source.

Assay: self-splicing fitness, log relative to wild type (ln ratio); higher = more splicing; Tetrahymena group I intron in knt gene, E. coli kanamycin selection, DiMSum; sequences stand for … in CUCUCU…GGAGGGAAAAGUUAUCAGGCAUGCACCUGGUAGCUAGUCUUUAAACCAAUAGAUUGCAUCGGUUUAAAAGGCAAGACCGUCAAAUUGCGGGAAAGGGGUCAACAGCCGUUCAGUACCAAGUCUCAGGGGAAACUUUGAGAUGGCCUUGCAAAGGGUAUGGUAAUAAGCUGACGGACAUGGUCCUAACCACGCAGCCAAGUCCUAAGUCAACAGAUCUUCUGUUGAUAUGGAUGCAGUUCACAGACUAAAUGUCGGUCGGGGAAGAUGUAUUCUUCUCAUAAGAUAUAGUCGGACCUCUCCUUAAUGGGAGCUAGCGGAUGAAGUGAUGCAACACUGGAGCCGCUGGGAACUAAUUUGUAUGCGAAAGUAUAUUGAUUAGUUUUGGAGUACUCGUGGUCG
Method in brief: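 DiMSum derived fitness as the error-weighted combination of fold changes across replicates, kanamycin versus no kanamycin, normalised to wild type. E. coli BL21(DE3) held the library, which randomised all eight P1ex-region intron nucleotides within the knt kanamycin-resistance gene on pET-22b(+). Six replicate transformations grew overnight at 37°C or 30°C on LB agar with or without 25 μg/mL kanamycin, also containing 100 μg/mL carbenicillin, 50 μM IPTG and 0.2% rhamnose, and pooled colonies were amplicon-sequenced on an Illumina HiSeq 2500.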

| Sequence | self-splicing fitness (ln) (30 °C) | self-splicing fitness (ln) (37 °C) |
| --- | --- | --- |
| AGGUAGCAAUAUUACGGUGA | -1.732 ± 0.017 | -1.06 ± 0.033 |
| AGGUAGCAAUAUUACGUACU | -0.29 ± 0.014 | -0.101 ± 0.034 |
| AGGUAGCAAUAUUACGUCAU | -2.147 ± 0.016 | -1.03 ± 0.034 |
| AGGUAGCAAUAUUACGUCGG | -2.803 ± 0.022 | -1.63 ± 0.036 |
| AGGUAGCAAUAUUACGUGGC | -3.619 ± 0.028 | -2.74 ± 0.042 |
| AGUAAGCAAUAUUACGAAAG | -4.26 ± 0.37 | – |
| AGUAAGCAAUAUUACGAAGG | -3.7 ± 0.2 | -2.07 ± 0.26 |
| AGUAAGCAAUAUUACGACUG | -1.45 ± 0.12 | 0.23 ± 0.15 |
| AGUAAGCAAUAUUACGAGAG | -2.28 ± 0.24 | -2.49 ± 0.29 |
| AGUAAGCAAUAUUACGAGCC | -0.632 ± 0.16 | -0.472 ± 0.17 |
| AGUAAGCAAUAUUACGCACU | -3.07 ± 0.29 | -1.79 ± 0.29 |
| AGUAAGCAAUAUUACGCAGG | -3.42 ± 0.23 | -1.43 ± 0.2 |
| AGUAAGCAAUAUUACGCAUG | -3.12 ± 0.17 | -1.95 ± 0.23 |
| AGUAAGCAAUAUUACGCCGG | -2.45 ± 0.39 | -1.99 ± 0.34 |
| AGUAAGCAAUAUUACGCGAG | -3.33 ± 0.21 | -1.75 ± 0.15 |
| AGUAAGCAAUAUUACGGAAA | -3.26 ± 0.41 | -0.269 ± 0.23 |
| AGUAAGCAAUAUUACGGACG | -0.782 ± 0.093 | -0.415 ± 0.12 |
| AGUAAGCAAUAUUACGGAUC | -1.39 ± 0.12 | -1.31 ± 0.1 |
| AGUAAGCAAUAUUACGGCCU | 0.0223 ± 0.17 | -0.034 ± 0.26 |
| AGUAAGCAAUAUUACGGCGC | -1.02 ± 0.11 | -0.433 ± 0.13 |
| AGUAAGCAAUAUUACGGGCC | -1.48 ± 0.2 | -0.26 ± 0.15 |
| AGUAAGCAAUAUUACGGGGC | -3.29 ± 0.36 | -2.29 ± 0.34 |
| AGUAAGCAAUAUUACGGUAG | -3.89 ± 0.23 | -3.44 ± 0.29 |
| AGUAAGCAAUAUUACGGUUU | -1.45 ± 0.092 | -0.554 ± 0.11 |

| Sequence | self-splicing fitness (ln) (30 °C) | self-splicing fitness (ln) (37 °C) |
| --- | --- | --- |
| AGUAAGCAAUAUUACGUAUC | -3.99 ± 0.33 | -0.681 ± 0.23 |
| AGUAAGCAAUAUUACGUGCA | -1.36 ± 0.085 | -0.712 ± 0.092 |
| AGUAAGCAAUAUUACGUGGA | -3.8 ± 0.4 | -3.85 ± 0.39 |
| AGUAAGCAAUAUUACGUUAC | -3.26 ± 0.24 | -2.61 ± 0.27 |
| AGUCAGCAAUAUUACGAAAA | -1.63 ± 0.17 | -1.3 ± 0.2 |
| AGUCAGCAAUAUUACGAAGC | -3.56 ± 0.18 | -2.03 ± 0.17 |
| AGUCAGCAAUAUUACGACUU | -2.13 ± 0.11 | -1.96 ± 0.19 |
| AGUCAGCAAUAUUACGAGAU | -2.61 ± 0.11 | -1.76 ± 0.1 |
| AGUCAGCAAUAUUACGAGCA | -0.935 ± 0.12 | -0.0144 ± 0.14 |
| AGUCAGCAAUAUUACGAUCA | 0.171 ± 0.099 | 0.226 ± 0.11 |
| AGUCAGCAAUAUUACGAUUC | -3.27 ± 0.14 | -1.05 ± 0.1 |
| AGUCAGCAAUAUUACGCAUC | -1.32 ± 0.1 | -0.329 ± 0.12 |
| AGUCAGCAAUAUUACGCCCG | -0.925 ± 0.12 | -1.52 ± 0.17 |
| AGUCAGCAAUAUUACGCUCU | -1.01 ± 0.2 | -0.342 ± 0.21 |
| AGUCAGCAAUAUUACGGAAA | -2.78 ± 0.19 | -2 ± 0.15 |
| AGUCAGCAAUAUUACGGCCA | -0.485 ± 0.14 | -0.0722 ± 0.2 |
| AGUCAGCAAUAUUACGGGAG | -3.52 ± 0.15 | -1.41 ± 0.11 |
| AGUCAGCAAUAUUACGGGGG | -3.61 ± 0.21 | -2.6 ± 0.22 |
| AGUCAGCAAUAUUACGGUGG | -3.01 ± 0.26 | -1.79 ± 0.24 |
| AGUCAGCAAUAUUACGUACG | -0.473 ± 0.08 | -0.0481 ± 0.1 |
| AGUCAGCAAUAUUACGUCGA | -0.487 ± 0.1 | -0.568 ± 0.13 |
| AGUCAGCAAUAUUACGUUUG | -4.04 ± 0.21 | -2.53 ± 0.19 |
| AGUGAGCAAUAUUACGAACG | -0.686 ± 0.094 | -0.206 ± 0.15 |
| AGUGAGCAAUAUUACGACGU | -0.966 ± 0.059 | -0.385 ± 0.066 |

| Sequence | self-splicing fitness (ln) (30 °C) | self-splicing fitness (ln) (37 °C) |
| --- | --- | --- |
| AGUGAGCAAUAUUACGAGAA | -1.8 ± 0.48 | – |
| AGUGAGCAAUAUUACGCAAU | -2.23 ± 0.4 | -0.698 ± 0.43 |
| AGUGAGCAAUAUUACGCAGA | – | -1.35 ± 0.28 |
| AGUGAGCAAUAUUACGCCGA | -1.82 ± 0.31 | -2.36 ± 0.4 |
| AGUGAGCAAUAUUACGCGGC | -3.16 ± 0.44 | – |
| AGUGAGCAAUAUUACGGACG | -1.16 ± 0.15 | -1.45 ± 0.21 |
| AGUGAGCAAUAUUACGGCGU | -1.08 ± 0.071 | -0.465 ± 0.084 |
| AGUGAGCAAUAUUACGGGUA | -3.22 ± 0.23 | -1.61 ± 0.26 |
| AGUGAGCAAUAUUACGUAAU | -3.13 ± 0.15 | -1.7 ± 0.15 |
| AGUGAGCAAUAUUACGUAGC | -1.99 ± 0.14 | -3.39 ± 0.39 |
| AGUGAGCAAUAUUACGUCGU | -3.79 ± 0.2 | -2.07 ± 0.14 |
| AGUGAGCAAUAUUACGUUGC | -3.28 ± 0.2 | -2.18 ± 0.24 |
| AGUUAGCAAUAUUACGAAAC | – | -0.856 ± 0.39 |
| AGUUAGCAAUAUUACGACAA | -0.124 ± 0.18 | -0.562 ± 0.18 |
| AGUUAGCAAUAUUACGACAC | -0.65 ± 0.12 | 0.204 ± 0.2 |
| AGUUAGCAAUAUUACGAGAG | -3.75 ± 0.29 | -2.24 ± 0.22 |
| AGUUAGCAAUAUUACGAGGC | -3.83 ± 0.27 | -3.27 ± 0.23 |
| AGUUAGCAAUAUUACGCCAU | -3.41 ± 0.21 | -1.53 ± 0.14 |
| AGUUAGCAAUAUUACGCCCA | -1.44 ± 0.32 | -0.867 ± 0.33 |
| AGUUAGCAAUAUUACGCGCU | -3.13 ± 0.21 | -2.4 ± 0.31 |
| AGUUAGCAAUAUUACGGAGG | -2.91 ± 0.3 | -2.13 ± 0.41 |
| AGUUAGCAAUAUUACGGGAC | -3.33 ± 0.26 | -0.241 ± 0.12 |
| AGUUAGCAAUAUUACGGUGU | -3.11 ± 0.21 | -1.73 ± 0.21 |
| AGUUAGCAAUAUUACGGUUC | -3.52 ± 0.28 | -2.11 ± 0.27 |

| Sequence | self-splicing fitness (ln) (30 °C) | self-splicing fitness (ln) (37 °C) |
| --- | --- | --- |
| AGUUAGCAAUAUUACGUACG | -0.205 ± 0.18 | 0.0821 ± 0.19 |
| AGUUAGCAAUAUUACGUAGC | -3.86 ± 0.26 | -0.803 ± 0.14 |
| AGUUAGCAAUAUUACGUGCG | -0.586 ± 0.082 | -0.00484 ± 0.093 |
| AGUUAGCAAUAUUACGUGGG | -4 ± 0.29 | -3.07 ± 0.31 |
| AGUUAGCAAUAUUACGUGUA | -2.26 ± 0.23 | -0.97 ± 0.15 |
| AGUUAGCAAUAUUACGUUAU | -3.25 ± 0.17 | -2.08 ± 0.17 |
| AUAAAGCAAUAUUACGAACG | -0.309 ± 0.082 | -0.0989 ± 0.11 |
| AUAAAGCAAUAUUACGAAGA | -2.47 ± 0.15 | -1.17 ± 0.18 |
| AUAAAGCAAUAUUACGAAGG | -2.1 ± 0.081 | -1.41 ± 0.12 |
| AUAAAGCAAUAUUACGACGG | -1.66 ± 0.096 | -0.375 ± 0.12 |
| AUAAAGCAAUAUUACGAGCC | -0.929 ± 0.14 | -1.35 ± 0.19 |
| AUAAAGCAAUAUUACGAUCC | -1.21 ± 0.2 | -0.716 ± 0.22 |
| AUAAAGCAAUAUUACGAUGU | -0.252 ± 0.072 | 0.28 ± 0.099 |
| AUAAAGCAAUAUUACGCAAC | -1.38 ± 0.13 | -1.34 ± 0.21 |
| AUAAAGCAAUAUUACGCACA | 0.246 ± 0.1 | 0.202 ± 0.15 |
| AUAAAGCAAUAUUACGCACU | 0.366 ± 0.11 | 0.662 ± 0.11 |
| AUAAAGCAAUAUUACGCGAA | -1.19 ± 0.088 | -0.188 ± 0.1 |
| AUAAAGCAAUAUUACGCGGC | -2.79 ± 0.21 | -0.109 ± 0.19 |
| AUAAAGCAAUAUUACGCUGA | -1.27 ± 0.082 | -0.907 ± 0.15 |
| AUAAAGCAAUAUUACGGAAA | -1.11 ± 0.11 | -1.12 ± 0.18 |
| AUAAAGCAAUAUUACGGACA | -0.148 ± 0.094 | 0.131 ± 0.13 |
| AUAAAGCAAUAUUACGGACG | -0.505 ± 0.11 | -0.793 ± 0.13 |
| AUAAAGCAAUAUUACGGGAG | -1.52 ± 0.11 | -1.23 ± 0.14 |
| AUAAAGCAAUAUUACGGGCG | -0.028 ± 0.097 | -0.567 ± 0.1 |
